Experimental data as given in patent US20190085029.

System: T1, CDK5 inhibitory (CDK5i) peptide
T1 sequence: ARAFGIPVRCYS

With Purified recombinant p25/CDK5 complex the “CDK5 kinase activity (radiolabeled ATP and its substrate, H1)” value was “the CDK5i peptide significantly reduced CDK5 kinase activity compared to that from a scrambled peptide-treated group”.
